# From the supplement of paper PMC10266784
# B1: library; numbered along this chain (parent)
# chain: MAAAAAAAAEQQSSNGPVKKSMREKAVERRSVNKEHNSNFKAGYIPIDEDRLHKTGLRGRKGNLAICVIILLFILAVINLIITLVIWAVIRIGPNGCDSMEFHESGLLRFKQVSDMGVIHPLYKSTVGGRRNENLVITGNNQPIVFQQGTTKLSVENNKTSITSDIGMQFFDPRTQNILFSTDYETHEFHLPSGVKSLNVQKASTERITSNATSDLNIKVDGRAIVRGNEGVFIMGKTIEFHMGGNMELKAENSIILNGSVMVSTTRLPSSSSGDQLGSGDWVRYKLCMCADGTLFKVQVTSQNMGCQISDNPCGNTH
# Variants of: B1
# Assay: SGCB cell-surface expression functional score (HA stain, bin4 vs bin1, normalised to synonymous) (log10 ratio); higher = more cell-surface SGCB (functional)
# Method in brief: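 Codon-saturation libraries of HA-tagged, YFP-fused human beta-sarcoglycan were lentivirally transduced at MOI <0.1 into HEK293 cells stably expressing alpha-, gamma- and delta-sarcoglycan. YFP-positive cells were sorted after 72 hours, grown 5–7 days, stained on ice with Alexa Fluor 647 anti-HA, fixed, sorted into four 5% intensity bins and amplicon-sequenced. The functional score is the log ratio of highest-bin to lowest-bin variant frequency, taken as the median over codons and duplicate transductions. Synonymous variants were scaled per section to mean 0, SD 0.5.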
row,Variant,SGCB cell-surface expression functional score (log10)
1,MAAAAAAAAEQQSSNGPVKKSMREKAVERRSVNKEHNSNFKAGYIPIDEDRLHKTGLRGRKGNLAICVIILLFILAVINLIITLVIWAVIRIGPNGCDSMEFHESGLLRFKQVSDMGVIHPLYKSTVGGRRNENLVITGNNQPIVFQQGTTKLSVENNKTSITSDIGMQAFDPRTQNILFSTDYETHEFHLPSGVKSLNVQKASTERITSNATSDLNIKVDGRAIVRGNEGVFIMGKTIEFHMGGNMELKAENSIILNGSVMVSTTRLPSSSSGDQLGSGDWVRYKLCMCADGTLFKVQVTSQNMGCQISDNPCGNTH [F170A],-0.27
2,MAAAAAAAAEQQSSNGPVKKSMREKAVERRSVNKEHNSNFKAGYIPIDEDRLHKTGLRGRKGNLAICVIILLFILAVINLIITLVIWAVIRIGPNGCDSMEFHESGLLRFKQVSDMGVIHPLYKSTVGGRRNENLVITGNNQPIVFQQGTTKLSVENNKTSITSDIGMQEFDPRTQNILFSTDYETHEFHLPSGVKSLNVQKASTERITSNATSDLNIKVDGRAIVRGNEGVFIMGKTIEFHMGGNMELKAENSIILNGSVMVSTTRLPSSSSGDQLGSGDWVRYKLCMCADGTLFKVQVTSQNMGCQISDNPCGNTH [F170E],-2.21
3,MAAAAAAAAEQQSSNGPVKKSMREKAVERRSVNKEHNSNFKAGYIPIDEDRLHKTGLRGRKGNLAICVIILLFILAVINLIITLVIWAVIRIGPNGCDSMEFHESGLLRFKQVSDMGVIHPLYKSTVGGRRNENLVITGNNQPIVFQQGTTKLSVENNKTSITSDIGMQGFDPRTQNILFSTDYETHEFHLPSGVKSLNVQKASTERITSNATSDLNIKVDGRAIVRGNEGVFIMGKTIEFHMGGNMELKAENSIILNGSVMVSTTRLPSSSSGDQLGSGDWVRYKLCMCADGTLFKVQVTSQNMGCQISDNPCGNTH [F170G],-0.91
4,MAAAAAAAAEQQSSNGPVKKSMREKAVERRSVNKEHNSNFKAGYIPIDEDRLHKTGLRGRKGNLAICVIILLFILAVINLIITLVIWAVIRIGPNGCDSMEFHESGLLRFKQVSDMGVIHPLYKSTVGGRRNENLVITGNNQPIVFQQGTTKLSVENNKTSITSDIGMQIFDPRTQNILFSTDYETHEFHLPSGVKSLNVQKASTERITSNATSDLNIKVDGRAIVRGNEGVFIMGKTIEFHMGGNMELKAENSIILNGSVMVSTTRLPSSSSGDQLGSGDWVRYKLCMCADGTLFKVQVTSQNMGCQISDNPCGNTH [F170I],0.36
5,MAAAAAAAAEQQSSNGPVKKSMREKAVERRSVNKEHNSNFKAGYIPIDEDRLHKTGLRGRKGNLAICVIILLFILAVINLIITLVIWAVIRIGPNGCDSMEFHESGLLRFKQVSDMGVIHPLYKSTVGGRRNENLVITGNNQPIVFQQGTTKLSVENNKTSITSDIGMQCFDPRTQNILFSTDYETHEFHLPSGVKSLNVQKASTERITSNATSDLNIKVDGRAIVRGNEGVFIMGKTIEFHMGGNMELKAENSIILNGSVMVSTTRLPSSSSGDQLGSGDWVRYKLCMCADGTLFKVQVTSQNMGCQISDNPCGNTH [F170C],-0.28
6,MAAAAAAAAEQQSSNGPVKKSMREKAVERRSVNKEHNSNFKAGYIPIDEDRLHKTGLRGRKGNLAICVIILLFILAVINLIITLVIWAVIRIGPNGCDSMEFHESGLLRFKQVSDMGVIHPLYKSTVGGRRNENLVITGNNQPIVFQQGTTKLSVENNKTSITSDIGMQDFDPRTQNILFSTDYETHEFHLPSGVKSLNVQKASTERITSNATSDLNIKVDGRAIVRGNEGVFIMGKTIEFHMGGNMELKAENSIILNGSVMVSTTRLPSSSSGDQLGSGDWVRYKLCMCADGTLFKVQVTSQNMGCQISDNPCGNTH [F170D],-1.87
7,MAAAAAAAAEQQSSNGPVKKSMREKAVERRSVNKEHNSNFKAGYIPIDEDRLHKTGLRGRKGNLAICVIILLFILAVINLIITLVIWAVIRIGPNGCDSMEFHESGLLRFKQVSDMGVIHPLYKSTVGGRRNENLVITGNNQPIVFQQGTTKLSVENNKTSITSDIGMNFFDPRTQNILFSTDYETHEFHLPSGVKSLNVQKASTERITSNATSDLNIKVDGRAIVRGNEGVFIMGKTIEFHMGGNMELKAENSIILNGSVMVSTTRLPSSSSGDQLGSGDWVRYKLCMCADGTLFKVQVTSQNMGCQISDNPCGNTH [Q169N],-1.92
8,MAAAAAAAAEQQSSNGPVKKSMREKAVERRSVNKEHNSNFKAGYIPIDEDRLHKTGLRGRKGNLAICVIILLFILAVINLIITLVIWAVIRIGPNGCDSMEFHESGLLRFKQVSDMGVIHPLYKSTVGGRRNENLVITGNNQPIVFQQGTTKLSVENNKTSITSDIGMKFFDPRTQNILFSTDYETHEFHLPSGVKSLNVQKASTERITSNATSDLNIKVDGRAIVRGNEGVFIMGKTIEFHMGGNMELKAENSIILNGSVMVSTTRLPSSSSGDQLGSGDWVRYKLCMCADGTLFKVQVTSQNMGCQISDNPCGNTH [Q169K],0
9,MAAAAAAAAEQQSSNGPVKKSMREKAVERRSVNKEHNSNFKAGYIPIDEDRLHKTGLRGRKGNLAICVIILLFILAVINLIITLVIWAVIRIGPNGCDSMEFHESGLLRFKQVSDMGVIHPLYKSTVGGRRNENLVITGNNQPIVFQQGTTKLSVENNKTSITSDIGMPFFDPRTQNILFSTDYETHEFHLPSGVKSLNVQKASTERITSNATSDLNIKVDGRAIVRGNEGVFIMGKTIEFHMGGNMELKAENSIILNGSVMVSTTRLPSSSSGDQLGSGDWVRYKLCMCADGTLFKVQVTSQNMGCQISDNPCGNTH [Q169P],-1.46
10,MAAAAAAAAEQQSSNGPVKKSMREKAVERRSVNKEHNSNFKAGYIPIDEDRLHKTGLRGRKGNLAICVIILLFILAVINLIITLVIWAVIRIGPNGCDSMEFHESGLLRFKQVSDMGVIHPLYKSTVGGRRNENLVITGNNQPIVFQQGTTKLSVENNKTSITSDIGMRFFDPRTQNILFSTDYETHEFHLPSGVKSLNVQKASTERITSNATSDLNIKVDGRAIVRGNEGVFIMGKTIEFHMGGNMELKAENSIILNGSVMVSTTRLPSSSSGDQLGSGDWVRYKLCMCADGTLFKVQVTSQNMGCQISDNPCGNTH [Q169R],0.09
11,MAAAAAAAAEQQSSNGPVKKSMREKAVERRSVNKEHNSNFKAGYIPIDEDRLHKTGLRGRKGNLAICVIILLFILAVINLIITLVIWAVIRIGPNGCDSMEFHESGLLRFKQVSDMGVIHPLYKSTVGGRRNENLVITGNNQPIVFQQGTTKLSVENNKTSITSDIGMVFFDPRTQNILFSTDYETHEFHLPSGVKSLNVQKASTERITSNATSDLNIKVDGRAIVRGNEGVFIMGKTIEFHMGGNMELKAENSIILNGSVMVSTTRLPSSSSGDQLGSGDWVRYKLCMCADGTLFKVQVTSQNMGCQISDNPCGNTH [Q169V],-0.23
12,MAAAAAAAAEQQSSNGPVKKSMREKAVERRSVNKEHNSNFKAGYIPIDEDRLHKTGLRGRKGNLAICVIILLFILAVINLIITLVIWAVIRIGPNGCDSMEFHESGLLRFKQVSDMGVIHPLYKSTVGGRRNENLVITGNNQPIVFQQGTTKLSVENNKTSITSDIGMTFFDPRTQNILFSTDYETHEFHLPSGVKSLNVQKASTERITSNATSDLNIKVDGRAIVRGNEGVFIMGKTIEFHMGGNMELKAENSIILNGSVMVSTTRLPSSSSGDQLGSGDWVRYKLCMCADGTLFKVQVTSQNMGCQISDNPCGNTH [Q169T],-0.04
13,MAAAAAAAAEQQSSNGPVKKSMREKAVERRSVNKEHNSNFKAGYIPIDEDRLHKTGLRGRKGNLAICVIILLFILAVINLIITLVIWAVIRIGPNGCDSMEFHESGLLRFKQVSDMGVIHPLYKSTVGGRRNENLVITGNNQPIVFQQGTTKLSVENNKTSITSDIGMMFFDPRTQNILFSTDYETHEFHLPSGVKSLNVQKASTERITSNATSDLNIKVDGRAIVRGNEGVFIMGKTIEFHMGGNMELKAENSIILNGSVMVSTTRLPSSSSGDQLGSGDWVRYKLCMCADGTLFKVQVTSQNMGCQISDNPCGNTH [Q169M],-1.88
14,MAAAAAAAAEQQSSNGPVKKSMREKAVERRSVNKEHNSNFKAGYIPIDEDRLHKTGLRGRKGNLAICVIILLFILAVINLIITLVIWAVIRIGPNGCDSMEFHESGLLRFKQVSDMGVIHPLYKSTVGGRRNENLVITGNNQPIVFQQGTTKLSVENNKTSITSDIGMWFFDPRTQNILFSTDYETHEFHLPSGVKSLNVQKASTERITSNATSDLNIKVDGRAIVRGNEGVFIMGKTIEFHMGGNMELKAENSIILNGSVMVSTTRLPSSSSGDQLGSGDWVRYKLCMCADGTLFKVQVTSQNMGCQISDNPCGNTH [Q169W],-1.48
15,MAAAAAAAAEQQSSNGPVKKSMREKAVERRSVNKEHNSNFKAGYIPIDEDRLHKTGLRGRKGNLAICVIILLFILAVINLIITLVIWAVIRIGPNGCDSMEFHESGLLRFKQVSDMGVIHPLYKSTVGGRRNENLVITGNNQPIVFQQGTTKLSVENNKTSITSDIGMIFFDPRTQNILFSTDYETHEFHLPSGVKSLNVQKASTERITSNATSDLNIKVDGRAIVRGNEGVFIMGKTIEFHMGGNMELKAENSIILNGSVMVSTTRLPSSSSGDQLGSGDWVRYKLCMCADGTLFKVQVTSQNMGCQISDNPCGNTH [Q169I],0.44
16,MAAAAAAAAEQQSSNGPVKKSMREKAVERRSVNKEHNSNFKAGYIPIDEDRLHKTGLRGRKGNLAICVIILLFILAVINLIITLVIWAVIRIGPNGCDSMEFHESGLLRFKQVSDMGVIHPLYKSTVGGRRNENLVITGNNQPIVFQQGTTKLSVENNKTSITSDIGMYFFDPRTQNILFSTDYETHEFHLPSGVKSLNVQKASTERITSNATSDLNIKVDGRAIVRGNEGVFIMGKTIEFHMGGNMELKAENSIILNGSVMVSTTRLPSSSSGDQLGSGDWVRYKLCMCADGTLFKVQVTSQNMGCQISDNPCGNTH [Q169Y],-0.36
17,MAAAAAAAAEQQSSNGPVKKSMREKAVERRSVNKEHNSNFKAGYIPIDEDRLHKTGLRGRKGNLAICVIILLFILAVINLIITLVIWAVIRIGPNGCDSMEFHESGLLRFKQVSDMGVIHPLYKSTVGGRRNENLVITGNNQPIVFQQGTTKLSVENNKTSITSDIGMHFFDPRTQNILFSTDYETHEFHLPSGVKSLNVQKASTERITSNATSDLNIKVDGRAIVRGNEGVFIMGKTIEFHMGGNMELKAENSIILNGSVMVSTTRLPSSSSGDQLGSGDWVRYKLCMCADGTLFKVQVTSQNMGCQISDNPCGNTH [Q169H],-0.86
18,MAAAAAAAAEQQSSNGPVKKSMREKAVERRSVNKEHNSNFKAGYIPIDEDRLHKTGLRGRKGNLAICVIILLFILAVINLIITLVIWAVIRIGPNGCDSMEFHESGLLRFKQVSDMGVIHPLYKSTVGGRRNENLVITGNNQPIVFQQGTTKLSVENNKTSITSDIGMSFFDPRTQNILFSTDYETHEFHLPSGVKSLNVQKASTERITSNATSDLNIKVDGRAIVRGNEGVFIMGKTIEFHMGGNMELKAENSIILNGSVMVSTTRLPSSSSGDQLGSGDWVRYKLCMCADGTLFKVQVTSQNMGCQISDNPCGNTH [Q169S],0.27
19,MAAAAAAAAEQQSSNGPVKKSMREKAVERRSVNKEHNSNFKAGYIPIDEDRLHKTGLRGRKGNLAICVIILLFILAVINLIITLVIWAVIRIGPNGCDSMEFHESGLLRFKQVSDMGVIHPLYKSTVGGRRNENLVITGNNQPIVFQQGTTKLSVENNKTSITSDIGMLFFDPRTQNILFSTDYETHEFHLPSGVKSLNVQKASTERITSNATSDLNIKVDGRAIVRGNEGVFIMGKTIEFHMGGNMELKAENSIILNGSVMVSTTRLPSSSSGDQLGSGDWVRYKLCMCADGTLFKVQVTSQNMGCQISDNPCGNTH [Q169L],-0.69
